Data on 41 sequences can be found in the nanobody polyreactivity screen of Harvey et al. (2022).

This data set can be described thus: yeast display, Sf9 membrane polyspecificity reagent, FACS + sequencing; frameworks hold sequencing errors. Summed up: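 Nanobodies from a synthetic yeast display library (Saccharomyces cerevisiae BJ5465), induced 36–48 hours with galactose, were stained 1 hour at 4 °C with 10% biotinylated, detergent-solubilized Sf9 membrane reagent, enriched on streptavidin microbeads, then FACS-sorted. Anti-HA (expression) and streptavidin (reagent binding) fluorescence set low and high (top ~1%) gates. Polyreactivity labels come from the gate of origin. Genes were colony-PCR amplified, MiSeq 2 × 250 sequenced and filtered by CDR length.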
Turning to “QVQLVESGGGLVQAGGSLRLSCAASGRIFTLYAMGWYRQAPGKERELVAAISYGGGGTYYADSVKGRFTISRDNAKNTVYLQMNRLKPEDSAVYFCATDDPLSQINEQGMDYWGQGTQVTVSS”, the “polyreactivity (PSR sort gate)” value is on record as “low polyreactivity”.

Consider “QVQLVESGGGLVQAGGSLRLSCAASGRIFTNNAMGWYRQAPGKERELVAAITRGGTTNYADSVKGRFTISRDNAKNTVYLHMNSLKPEDTAVYFCARAGAHPWWSRSTMYYWGQGTQVTVSS”, for which the “polyreactivity (PSR sort gate)” value is given as “low polyreactivity”.

Take “QVQLVESGGGLVQAGGSLRLSCAASGRIFTNYAMGWYREAPGKERELVAAINYSGGNTYYADSVKGRFTISRDNAKNTVYLQMNSLIPEDTAVYYCNAPILPRYRRYDYWGQGTQVTVSS”: the “polyreactivity (PSR sort gate)” value is “low polyreactivity”.

Take “QVQLVESGGGLVQAGGSLRLSCAASGRIFTNYAMGWYRQAPGKERELVAAINWDGGSTYYADSVKGRFTISRDNAKNTVYLQMNSLKPEDTAVYYCAAQGGLSEFDYWGQGTQVTVSS”: the “polyreactivity (PSR sort gate)” value is given as “low polyreactivity”.

Regarding “QVQLVESGGGLVQAGGSLRLSCAASGRIFTQNAMGWYRQAPGKERELVAAINYSGGRTYYADSVKGRFTISRDNAKNTVYLQMNSLKPEDTAVYYCAAEWYTRFYISYGYWGQGTQVTVSS”, the “polyreactivity (PSR sort gate)” value is “high polyreactivity”.

As for “QVQLVESGGGLVQAGGSLRLSCAASGRIFTRYAMGWYRHAPGKERELVAAITASGGRTYYADSVKGRFTISRDNAKNTVYLQMNSLKPEDTAVYYCAATYHRYYETQDSYDYWGQGTQVTVSS”, the “polyreactivity (PSR sort gate)” value is given as “high polyreactivity”.

Turning to “QVQLVESGGGLVQAGGSLRLSCAASGRIFTRYAMGWYRQAPGKERELVAAIDRGGSTYYADSVKGRFTISRDNAKNTVYLQMNSLKPEDTAVYYCAARIKAWGLEFYYWGQGTQVTVSS”, the “polyreactivity (PSR sort gate)” value is listed as “high polyreactivity”.

For the sequence “QVQLVESGGGLVQAGGSLRLSCAASGRIFTRYAMGWYRQAPGKERELVAAISRGGARTYYADSVKGRFTISRDNAKNTVYLQMNSLKPEDTAVYYCARQRVKTDRISGYDYWGQGTQVTVSS”, the “polyreactivity (PSR sort gate)” value is “high polyreactivity”.

“QVQLVESGGGLVQAGGSLRLSCAASGRIFTRYAMGWYRQAPGKERELVAVITRSGGSTYYADSVKGRFTISRDNAKNTVYLQMTSLKPEDTAVYYCAAKYYGEMYYWGQGTQVTVSS”: the “polyreactivity (PSR sort gate)” value is given as “low polyreactivity”.

For the sequence “QVQLVESGGGLVQAGGSLRLSCAASGRIFTRYVMGWYRPAPGKERELVAGINSGGRTNYADSVKGRFTISRDNAKNTVYLQMNSLKQVDTAVYYCAAGKGRPVGGRAYYYWGHGTQVTVSS”, the “polyreactivity (PSR sort gate)” value was “high polyreactivity”.

For “QVQLVESGGGLVQAGGSLRLSCAASGRIFTSNAMGWYRQAPGKERELVASITSSSSTNYADSVKGRFTLSRDNAKNTVYLQMNSLKPEDTAVYYCAAERVWPYGHDYWGQGTQVTVSS”, the “polyreactivity (PSR sort gate)” value was “low polyreactivity”.

As to “QVQLVESGGGLVQAGGSLRLSCAASGRIFTSYAMGWYRQAPGKERELVASITSGGRTDYADSVKGRFTISRDNAKNTVYVQMNSLKPEDTAVYYCNVGTRRALYYPYRPGRYDYWGQGTQVTVSS”, the “polyreactivity (PSR sort gate)” value is “low polyreactivity”.

As for “QVQLVESGGGLVQAGGSLRLSCAASGRIFTSYVMGWYRQAPGKERELVAAITRTGGSTYYADSVKGRFTISRDNAKNTVYLQMNSLKPEDTAVYYCNALTRRQKGGEGGGYWGQGTQVTVSS”, the “polyreactivity (PSR sort gate)” value was “high polyreactivity”.

For “QVQLVESGGGLVQAGGSLRLSCAASGRIFTTNVMGWYRQAPGKERELVAAISWSGGNTYYADSVKGRFTISRDNAKNTVYLQMNSLKPEDTAVYYCNAVGTIREGDSWGQGTQVTVSS”, the “polyreactivity (PSR sort gate)” value is on record as “low polyreactivity”.

As for “QVQLVESGGGLVQAGGSLRLSCAASGRIFTYNAMGWYRQAPGKERELVASINLDGDSTYYADSVKGRFTISRDNAKKTVYLQMNSLKTEETAVYYCAVPGATSYFAYDSWGQGTQVTVSS”, the “polyreactivity (PSR sort gate)” value is given as “low polyreactivity”.

As for “QVQLVESGGGLVQAGGSLRLSCAASGRIFTYNTMGWYRQAPGKERELVAAIRTGGSTNYADSVKGRFTISRDNAKNTVYLQMNSLKPEDTAVYYCNTVRHSSSVYWYDYWGQGTQVTVSS”, the “polyreactivity (PSR sort gate)” value was “low polyreactivity”.

On to “QVQLVESGGGLVQAGGSLRLSCAASGRIFTYNTMGWYRQAPGKERELVAAISGSGGITYYADSVKGRFTISRDNAKNTVYLQMNSLKPEDTAVYYCNTVPLYVSRYPYDYWGQGTQVTVSS”, for which the “polyreactivity (PSR sort gate)” value is “low polyreactivity”.

As to “QVQLVESGGGLVQAGGSLRLSCAASGRIFTYNTMGWYRQAPGKERELVAAITSGGRTYYADSVKGRFTISRDNAKNTVYLQMNSLKPEDTAVYYCAAGRSRFVTRYDYWGQGTQVTVSS”, the “polyreactivity (PSR sort gate)” value was “high polyreactivity”.

Consider “QVQLVESGGGLVQAGGSLRLSCAASGRIFTYNTMGWYRQSPGKEREFVASITYSGSSTYYADSVKGRFTISRDNAKNTVYLQMNSLKPEDTAVYYCATRYGYSDGDYWGHGTQVTVSS”, for which the “polyreactivity (PSR sort gate)” value was “low polyreactivity”.

Consider “QVQLVESGGGLVQAGGSLRLSCAASGRIFTYYAMGWFRQAPGKERELVAAISFRGSSTYYADSVKGRVTLSRDNAKNTVYLQRNSLKPEDTAVYYCAAERIARPTFDYWGQGTQVTVSS”, for which the “polyreactivity (PSR sort gate)” value is “low polyreactivity”.

As for “QVQLVESGGGLVQAGGSLRLSCAASGRIFTYYGMGWYRQAPGKERELVAAISWSGGSTYYADSVKGRFTISRDNAKNTVYLQMNSLKPEDTAVYYCNAASRYGGDYWGQGTQVTVSS”, the “polyreactivity (PSR sort gate)” value is reported as “high polyreactivity”.

Consider “QVQLVESGGGLVQAGGSLRLSCAASGRIFTYYTMGGYRQAPGKERELVATINSSGGSTYYADSVKGRFTISRDNAKNTVYLQMNRLKPEDTAVYYCNDAYKSQVRYRRYNYWGQGTQVTVSS”, for which the “polyreactivity (PSR sort gate)” value is given as “high polyreactivity”.

On to “QVQLVESGGGLVQAGGSLRLSCAASGRIFVDNAMGWYRQAPGKERELVAAITRGGSTYADSVKGRFTISRDNAQNTVYLQMISLKPEDTAVYYCAADLWSVPFTVYTFGIFYYWGQGTQVTVSS”, for which the “polyreactivity (PSR sort gate)” value is “low polyreactivity”.

“QVQLVESGGGLVQAGGSLRLSCAASGRIFVDYAMGWYRQAPGKERELVAAITRSGDRTYYADSVKGRFTISRDNAKNTVYLQMNSLKPEDTAVYYCATDYPGYDWGQGTQVTVSS”: the “polyreactivity (PSR sort gate)” value is reported as “low polyreactivity”.

For the sequence “QVQLVESGGGLVQAGGSLRLSCAASGRIFVEYAMGWYRQAPGKERELVAAINSGGSTNYADSVKGRFTISRDNAKNTVYLQMNSLKPEDTAVYYCNKDTLVYGYVQDYEYWGQGTQVTVSS”, the “polyreactivity (PSR sort gate)” value is “low polyreactivity”.

As for “QVQLVESGGGLVQAGGSLRLSCAASGRIFVGNTMGWYRQAPGKDRELVAAISWRGRTSYADSVKGRFTISRDNAKNTVYLQMNSLKPEDTAVYYCNAEHAGASRYYYIANWMDYWGQGTQVTVSS”, the “polyreactivity (PSR sort gate)” value is reported as “low polyreactivity”.

Consider “QVQLVESGGGLVQAGGSLRLSCAASGRIFVGYAMGLYRQAPGKEREFVATITFSGSSTYYADSVKGRFTISRDNAKNTVYIQMNSLKPEDTAVYYCAVTLEDYTYVYWGQGTQVTVSS”, for which the “polyreactivity (PSR sort gate)” value is given as “low polyreactivity”.

With “QVQLVESGGGLVQAGGSLRLSCAASGRIFVGYAMGWYRQAPGKERELVAAINRSGSSKYYADSVKGRFTISRDNAKNTVYLQMNSLKTEDTAVYYCNARSGNRYGPRYDYWGQGTQVTVSS”, the “polyreactivity (PSR sort gate)” value is “high polyreactivity”.

As to “QVQLVESGGGLVQAGGSLRLSCAASGRIFVGYAMGWYRQAPGKERELVAAINRSGSSTYYADSVKGRFTISRDNAKNTVYLQMNSLKPEDSAVYYCNARAPSYYRYRASSAYDYWGQGTQVTVSS”, the “polyreactivity (PSR sort gate)” value is “high polyreactivity”.

Consider “QVQLVESGGGLVQAGGSLRLSCAASGRIFVGYAMGWYRQAPGKERELVAAISSRGGSTYYADSVKGRFTISRDNAKNTVYLQMNSLKPEDTAVYYCAKVRTYRYYDGGDYWGQGTQVTVSS”, for which the “polyreactivity (PSR sort gate)” value was “high polyreactivity”.

On to “QVQLVESGGGLVQAGGSLRLSCAASGRIFVHNSMGWYRQAPGKERELVAAISSCGRTYYADSVKGRFTISRDNAKNTVYFQMNSLKPEDTAVYYCNAGRTNRAGRRWPMDYWGQGTHVTVSS”, for which the “polyreactivity (PSR sort gate)” value is given as “high polyreactivity”.

Take “QVQLVESGGGLVQAGGSLRLSCAASGRIFVHYAMGWYRQAPGKERELVAAITSGSSTNYADSVKGRFTISRDNAKNTVYLQMNSLKPEDTAVYYCAADYSVHLVRDRWFDYWGQGTQVTVSS”: the “polyreactivity (PSR sort gate)” value is on record as “low polyreactivity”.

As for “QVQLVESGGGLVQAGGSLRLSCAASGRIFVINAMGWYRQAPGKERELVADITWSGGSTYADSVKGRFTISRDNAKNTVYLLMNSLNPADTAVSYCAAVYLRVDRYLQVYRYDYWGQGTQVTVSS”, the “polyreactivity (PSR sort gate)” value was “high polyreactivity”.

In the case of “QVQLVESGGGLVQAGGSLRLSCAASGRIFVKNAMGWYRQAPGKERELVAAISSSSGSTYYADSVKGRFTISRDNAKNTVYLQMNSLKPEDTAVYYCATVRWYYSRPRPTTAYGYWGQGTQVNVSS”, the “polyreactivity (PSR sort gate)” value is reported as “high polyreactivity”.

With “QVQLVESGGGLVQAGGSLRLSCAASGRIFVKYAMGWYRQAPGKERELVAGISRSVGSTYYADSVKGRFTISRDNAKNTVYLQMNSLKPEDTAVYYCATRQKRVGYYYWGQGTQVTVSS”, the “polyreactivity (PSR sort gate)” value was “high polyreactivity”.

Consider “QVQLVESGGGLVQAGGSLRLSCAASGRIFVNNAKGWYRPAPGKERELVAAISRGASTYYADSVKGRFTISRDNAKNTVYLQLNSLKAEDTAVYYGNARTDAYGASEMGYWGQGTQVTVSS”, for which the “polyreactivity (PSR sort gate)” value is reported as “high polyreactivity”.

For “QVQLVESGGGLVQAGGSLRLSCAASGRIFVNNAMGWYRQAPGKERELVAAITGRGTRTYYADSVKGRFTISRDNAKNTVYLQMNSLKPEDTADYYCNAVSTAVIGYEYDYWGQGTQVTVSS”, the “polyreactivity (PSR sort gate)” value was “high polyreactivity”.

As to “QVQLVESGGGLVQAGGSLRLSCAASGRIFVPYVMGWYRQAPGKDRELVASISDSDTSTYYADSVKGRFTISRDNAKNNVYLQMNSMKPEDTAVYYCNVDYWGQGTQVTVSS”, the “polyreactivity (PSR sort gate)” value is on record as “low polyreactivity”.

Take “QVQLVESGGGLVQAGGSLRLSCAASGRIFVQNAMGWYRQAPGKERELVAAINWSVGSTYYADSVKGRFTISRDNAKNTVYLQMNSLKPEDTAVYYCAAGNLYYAEYDYWGQGTQVTVSS”: the “polyreactivity (PSR sort gate)” value is “low polyreactivity”.

As to “QVQLVESGGGLVQAGGSLRLSCAASGRIFVRYAMGWYRQAPGKEREWVAVSTTGGARTRDADSVKGRFTISRDNAKNSVYLQMNSLKPEDTGVYYCAAQTYSQRWYDYWGQGTQVTVSS”, the “polyreactivity (PSR sort gate)” value is given as “high polyreactivity”.

For “QVQLVESGGGLVQAGGSLRLSCAASGRIFVSHAMGWYRQAPGKERALVAGITWTSGSTYYADSVKGRFTISRDNAKNTVYLQMKSLKPEDTAVYYCAAEYWYGNAFDYWGLGTQVTVSS”, the “polyreactivity (PSR sort gate)” value is on record as “low polyreactivity”.
